Source: publication doi:10.1101/2021.08.19.456998, “Structures of the Human SPAK and OSR1 Conserved C-Terminal (CCT) Domains” (bioRxiv, 2021)
Where no end group is shown, it is not given here. The star is where a group is joined. Biotin = O=C1N[C@H]2[C@H](CS[C@H]2CCCCC(=O)*)N1

B1: cleaved OSR1 (human OSR1 CCT domain, residues 423-527, tags removed with TEV protease) (domain or fragment)
chain: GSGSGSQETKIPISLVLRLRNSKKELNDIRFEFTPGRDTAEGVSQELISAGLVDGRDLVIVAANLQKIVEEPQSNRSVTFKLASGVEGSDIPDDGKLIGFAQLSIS
notes: glycine of the TEV site (ENLYFQ/G) left after cleavage; OSR1, human, CCT domain, residues 423-527; also called cleaved hOSR1-CCT; hOSR1-CCT; source: E. coli BL21-CodonPlus (DE3)-RIL, purified (HisTrap, SEC, TEV cleavage, SEC in HBS EP); not shown: His6, N-terminal, cleaved; AviTag, N-terminal, cleaved
B2: 18-mer RFQV peptide derived from WNK4 (SEEGKPQLVGRFQVTSSK), unbiotinylated (peptide)
peptide: SEEGKPQLVGRFQVTSSK
notes: With No Lysine kinase 4 (WNK4), 18-mer with the RFQV motif; also called 18-mer peptide; RFQV 18-mer peptide; source: synthetic peptide, bought: GL Biochem, Shanghai Ltd

What was measured:
Settings in all cases: both partners purified
[1] = target: T1, Biotin-C6-SEEGKPQLVGRFQVTSSK (N-terminally biotinylated 18-mer RFQV peptide derived from WNK4) (human); experiment: grating-coupled interferometry (Creoptix WAVE); waveRAPID; biotin-C6-18-mer peptide captured on streptavidin chip (about 400 pg/mm^2), cleaved SPAK or OSR1 as analyte at 2 µM; 25°C, HBS EP; heterogeneous ligand model for SPAK
T1 construct: With No Lysine kinase 4 (WNK4), 18-mer with the RFQV motif; also called biotinylated 18-mer peptide; biotin 18-mer peptide; source: synthetic peptide, bought: GL Biochem, Shanghai Ltd
T1 peptide: {Biotin-C6}-SEEGKPQLVGRFQVTSSK

[2] = target: T1, Biotin-C6-SEEGKPQLVGRFQVTSSK …; experiment: grating-coupled interferometry (Creoptix WAVE); traditional multicycle kinetics; biotin-C6-18-mer peptide captured on streptavidin chip, cleaved OSR1 as analyte, 25 µM in 1:3 dilutions (six points); 25°C, HBS EP
[3] = target: T2, biotin-SPAK (uncleaved human SPAK CCT domain, residues 441-545, biotinylated on the AviTag) (human, biotin on the lysine of the AviTag (…)); experiment: grating-coupled interferometry (Creoptix WAVE); traditional multicycle kinetics; biotin-SPAK or biotin-OSR immobilised on streptavidin chip, 18-mer peptide as analyte, 50 µM in 3-fold dilutions (six points); 25°C, HBS EP; one-to-one fit
T2 construct: STE20/SPS1-related proline/alanine-rich kinase (SPAK), human, conserved C-terminal (CCT) domain, residues 441-545; the TEV site was not cut in this form; also called hSPAK-CCT; source: E. coli BL21-CodonPlus (DE3)-RIL, purified (HisTrap, SEC), biotinylated with BirA; not shown: His6, N-terminal, kept; AviTag, N-terminal, kept

[4] = target: T2, biotin-SPAK (uncleaved human SPAK CCT …); experiment: grating-coupled interferometry (Creoptix WAVE); waveRAPID; biotin-SPAK or biotin-OSR immobilised on streptavidin chip (about 1000 pg/mm^2), 18-mer peptide as analyte at 5 µM; 25°C, HBS EP (10 mM HEPES pH 7.4, 150 mM NaCl, 3 mM EDTA, 0.005% Tween20); 1:1 kinetic model, global fit
[5] = target: T3, biotin-OSR (uncleaved human OSR1 CCT domain, residues 423-527, biotinylated on the AviTag) (human, biotin on the lysine of the AviTag (…)); experiment: as above
T3 construct: Oxidative Stress Responsive 1 (OSR1) kinase, human, conserved C-terminal (CCT) domain, residues 423-527; the TEV site was not cut in this form; also called hOSR1-CCT; hOSR-CCT; source: E. coli BL21-CodonPlus (DE3)-RIL, purified (HisTrap, SEC), biotinylated with BirA; not shown: His6, N-terminal, kept; AviTag, N-terminal, kept
T3 sequence (chain, as listed by the source): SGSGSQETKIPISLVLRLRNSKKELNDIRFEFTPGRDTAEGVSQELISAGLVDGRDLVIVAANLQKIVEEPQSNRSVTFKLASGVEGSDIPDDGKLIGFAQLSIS

Row | Kd [1] | Kd [2] | Kd [3] | Kd [4] | Kd [5] | Binder
1 | 2100 nM | 6600 nM |  |  |  | B1
2 |  |  | 1160 nM | 1100 nM | 2500 nM | B2
